Results published in PMC3072145.

What was measured:
Hfq-65 = Hfq-65 (Escherichia coli, UniProt P0A6X3 1-65, del66-102); test: EMSA
Hfq-75 = Hfq-75 (Escherichia coli, UniProt P0A6X3 1-75, del76-102); test: EMSA

AAAAAAAAAAAAAAAAAA (ssRNA) [rA18]
binding result (Hfq-65): binds
binding result (Hfq-75): binds
